# Results as given in publication PMC9913320, “Development of ^99mTc-Hynic-Adh-1 Molecular Probe Specifically Targeting N-Cadherin and Its Preliminary Experimental Study in Monitoring Drug Resistance of Non-Small-Cell Lung Cancer” (Cancers, 2023).
# Experiments:
# [1] = In vitro stability in FBS; assay type: in vitro ADME; details: room temperature
# Protocol: (§1) In vitro stability studies of ^99mTc-HYNIC-ADH1 were performed in FBS as well as PBS solution. A total of 50 μL of ^99mTc-HYNIC-ADH1 was mixed with 950 μL of FBS (or PBS), and its radioactivity was measured after being incubated at room temperature for 0.5, 1, 2, 4, 6 and 24 h, respectively.
# (§2) For stability assessments, ^99mTc-HYNIC-ADH-1 (3.7 MBq) was incubated in PBS (pH 7.4) or FBS for 24 h. […] The radiochemical purities were 98.51%, 98.50%, 97.97%, 98.02%, 98.81%, 98.09% and 98.09% in FBS at room temperature at 0.5, 1, 2, 3, 6, 12 and 24 h, respectively.
# [2] = Biodistribution in xenograft-bearing nude mice, PC9GR tumor; assay type: in vivo, BALB/c nude mice; details: mouse, iv, 0.74 MBq, xenograft-bearing nude mice, i.v., read-out: Biodistribution, T(PC9GR)
# Protocol: (§3) All animal research was performed in accordance with the Zhejiang University Institutional Animal Care and Use Committee guidelines. PC9 and PC9GR cells (2 × 10^6 cells per mice) were injected subcutaneously into the flanks of 2- to 4-week old BALB/c nude mice (left: PC9GR, right: PC9). The cells were allowed to grow 3–5 weeks until tumors were 1 ± 0.5 cm^3 in volume. Normal C57/BL6 mice (aged 6 to 8 wks old) were obtained from the Animal Center of the First Affiliated Hospital of Zhejiang University. All animals were maintained with free access to food and water and used a standard diet, bedding and environment.
# (§4) The radiotracer (0.1 mL, 0.74 MBq) was injected intravenously into normal C57/BL6 mice and xenograft models as previously described (n = 4 per group per time) via the tail vein. After different time intervals (30, 60, 120 and 240 min), the mice were sacrificed by cervical dislocation, and their blood, tumors and major organs (brain, heart, lung, liver, spleen, kidney, stomach, intestine, muscle, bone and skin) were harvested and weighed. The radioactivity of each sample was measured with a γ-counter. Values are shown as the percentage of the injected dose per gram (%ID/g), which corrected for background and decay to maintain consistency.
# [3] = tested on: PC9GR tumor; assay: as above; assay type: in vivo, BALB/c nude mice; details: biodistribution, tumor-bearing mice
# Protocol: as §3, §4
# [4] = In vitro stability in PBS; assay type: physicochemical; details: PBS pH 7.4, room temperature
# Protocol: as §1, §2
# [5] = Biodistribution in normal mice; assay type: in vivo, C57/BL6 mice; details: for tissue uptake at 0.5 h / tissue uptake at 1 h / tissue uptake at 2 h / tissue uptake at 4 h: i.v.; for tissue uptake at 0.5 h: 30 min; for tissue uptake at 1 h: 60 min; for tissue uptake at 2 h: 120 min; for tissue uptake at 4 h: 240 min
# Protocol: as §4
# [6] = mouse, blood, iv, 0.74 MBq, normal C57/BL6 mice, read-out: Biodistribution, Blood
# [7] = mouse, bone, iv, 0.74 MBq, normal C57/BL6 mice, read-out: Biodistribution, Bone
# [8] = mouse, brain, iv, 0.74 MBq, normal C57/BL6 mice, read-out: Biodistribution, Brain
# [9] = mouse, heart, iv, 0.74 MBq, normal C57/BL6 mice, read-out: Biodistribution, Heart
# [10] = mouse, intestine, iv, 0.74 MBq, normal C57/BL6 mice, read-out: Biodistribution, Intestine
# [11] = mouse, kidney, iv, 0.74 MBq, normal C57/BL6 mice, read-out: Biodistribution, Kidney
# [12] = mouse, liver, iv, 0.74 MBq, normal C57/BL6 mice, read-out: Biodistribution, Liver
# [13] = mouse, lung, iv, 0.74 MBq, normal C57/BL6 mice, read-out: Biodistribution, Lung
# [14] = mouse, muscle, iv, 0.74 MBq, normal C57/BL6 mice, read-out: Biodistribution, Muscle
# [15] = mouse, skin, iv, 0.74 MBq, normal C57/BL6 mice, read-out: Biodistribution, Skin
# [16] = mouse, spleen, iv, 0.74 MBq, normal C57/BL6 mice, read-out: Biodistribution, Spleen
# [17] = mouse, stomach, iv, 0.74 MBq, normal C57/BL6 mice, read-out: Biodistribution, Stomach
compound,measurement,setting,value
"CC(=O)N[C@H]1CSSC[C@@H](C(=O)NCCNC(=O)c2ccc(NN)nc2)NC(=O)[C@H](C(C)C)NC(=O)[C@H](C)NC(=O)[C@H](Cc2c[nH]cn2)NC1=O [^99mTc-HYNIC-ADH-1, metal not drawn]",radiochemical purity,[1]; 0.5 h,98.51%
same,radiochemical purity,[1]; 1 h,98.50%
same,radiochemical purity,[1]; 2 h,97.97%
same,radiochemical purity,[1]; 3 h,98.02%
same,radiochemical purity,[1]; 6 h,98.81%
same,radiochemical purity,[1]; 12 h,98.09%
same,tissue uptake at 2 h,"[2]; tumor (PC9GR), 120 min",1.32 ± 0.08 %ID/g
same,tissue uptake at 0.5 h,"[2]; tumor, 30 min",1.09 ± 0.15 %ID/g
same,tissue uptake at 1 h,"[2]; tumor, 60 min",1.26 ± 0.1 %ID/g
same,tissue uptake at 4 h,"[2]; tumor, 240 min",0.75 ± 0.19 %ID/g
same,T/NT PC9GR/Kidney,[3]; 30 min,0.42 ± 0.10
same,T/NT PC9GR/Liver,[3]; 30 min,1.64 ± 0.24
same,T/NT PC9GR/Muscle,[3]; 30 min,2.41 ± 0.12
same,T/NT PC9GR/Kidney,[3]; 1 h,0.27 ± 0.04
same,T/NT PC9GR/Liver,[3]; 1 h,1.58 ± 0.12
same,T/NT PC9GR/Muscle,[3]; 1 h,2.64 ± 0.47
same,T/NT PC9GR/Kidney,[3]; 2 h,0.49 ± 0.20
same,T/NT PC9GR/Liver,[3]; 2 h,2.14 ± 0.69
same,T/NT PC9GR/Muscle,[3]; 2 h,5.19 ± 1.89
same,T/NT PC9GR/Kidney,[3]; 4 h,0.26 ± 0.13
same,T/NT PC9GR/Liver,[3]; 4 h,1.36 ± 0.69
same,T/NT PC9GR/Muscle,[3]; 4 h,3.62 ± 1.92
same,radiochemical purity,[4]; 0.5 h,99.01%
same,radiochemical purity,[4]; 1 h,98.81%
same,radiochemical purity,[4]; 2 h,98.55%
same,radiochemical purity,[4]; 3 h,99.02%
same,radiochemical purity,[4]; 6 h,98.52%
same,radiochemical purity,[4]; 12 h,98.01%
same,crossing of the blood–brain barrier,[5]; from biodistribution: no obvious distribution in the brain,could not cross the blood–brain barrier
same,tissue uptake at 0.5 h,[5]; [6],3.31 ± 0.37 %ID/g
same,tissue uptake at 1 h,[5]; [6],1.23 ± 0.07 %ID/g
same,tissue uptake at 2 h,[5]; [6],0.84 ± 0.19 %ID/g
same,tissue uptake at 4 h,[5]; [6],0.58 ± 0.08 %ID/g
same,tissue uptake at 0.5 h,[5]; [7],1.45 ± 0.11 %ID/g
same,tissue uptake at 1 h,[5]; [7],0.61 ± 0.14 %ID/g
same,tissue uptake at 2 h,[5]; [7],0.58 ± 0.3 %ID/g
same,tissue uptake at 4 h,[5]; [7],0.44 ± 0.15 %ID/g
same,tissue uptake at 0.5 h,[5]; [8],0.18 ± 0.05 %ID/g
same,tissue uptake at 1 h,[5]; [8],0.09 ± 0.02 %ID/g
same,tissue uptake at 2 h,[5]; [8],0.1 ± 0.02 %ID/g
same,tissue uptake at 4 h,[5]; [8],0.08 ± 0.05 %ID/g
same,tissue uptake at 0.5 h,[5]; [9],1.71 ± 0.3 %ID/g
same,tissue uptake at 1 h,[5]; [9],0.49 ± 0.29 %ID/g
same,tissue uptake at 2 h,[5]; [9],0.43 ± 0.07 %ID/g
same,tissue uptake at 4 h,[5]; [9],0.32 ± 0.04 %ID/g
same,tissue uptake at 0.5 h,[5]; [10],2.96 ± 0.3 %ID/g
same,tissue uptake at 1 h,[5]; [10],2.14 ± 0.43 %ID/g
same,tissue uptake at 2 h,[5]; [10],1.78 ± 0.2 %ID/g
same,tissue uptake at 4 h,[5]; [10],1.26 ± 0.33 %ID/g
same,tissue uptake at 5 min,"[5]; mouse, kidney, iv, 0.74 MBq, normal C57/BL6 mice, 5 min",22.1 ± 1.15 %ID/g
same,tissue uptake at 0.25 h,"[5]; mouse, kidney, iv, 0.74 MBq, normal C57/BL6 mice, 15 min",12 ± 0.73 %ID/g
same,tissue uptake at 0.5 h,[5]; [11],12.1 ± 0.47 %ID/g
same,tissue uptake at 1 h,[5]; [11],9.01 ± 0.76 %ID/g
same,tissue uptake at 2 h,[5]; [11],6.46 ± 0.3 %ID/g
same,tissue uptake at 4 h,[5]; [11],6.16 ± 0.51 %ID/g
same,tissue uptake at 0.5 h,[5]; [12],1.95 ± 0.17 %ID/g
same,tissue uptake at 1 h,[5]; [12],1.06 ± 0.2 %ID/g
same,tissue uptake at 2 h,[5]; [12],0.86 ± 0.15 %ID/g
same,tissue uptake at 4 h,[5]; [12],0.68 ± 0.12 %ID/g
same,tissue uptake at 0.5 h,[5]; [13],3.83 ± 0.12 %ID/g
same,tissue uptake at 1 h,[5]; [13],1.7 ± 0.14 %ID/g
same,tissue uptake at 2 h,[5]; [13],1.54 ± 0.56 %ID/g
same,tissue uptake at 4 h,[5]; [13],1.08 ± 0.27 %ID/g
same,tissue uptake at 0.5 h,[5]; [14],1.55 ± 0.8 %ID/g
same,tissue uptake at 1 h,[5]; [14],0.44 ± 0.08 %ID/g
same,tissue uptake at 2 h,[5]; [14],0.52 ± 0.29 %ID/g
same,tissue uptake at 4 h,[5]; [14],0.42 ± 0.21 %ID/g
same,tissue uptake at 0.5 h,[5]; [15],3.45 ± 0.44 %ID/g
same,tissue uptake at 1 h,[5]; [15],1.9 ± 0.58 %ID/g
same,tissue uptake at 2 h,[5]; [15],1.69 ± 0.4 %ID/g
same,tissue uptake at 4 h,[5]; [15],1.05 ± 0.18 %ID/g
same,tissue uptake at 0.5 h,[5]; [16],1.25 ± 0.1 %ID/g
same,tissue uptake at 1 h,[5]; [16],0.73 ± 0.24 %ID/g
same,tissue uptake at 2 h,[5]; [16],0.53 ± 0.12 %ID/g
same,tissue uptake at 4 h,[5]; [16],0.45 ± 0.11 %ID/g
same,tissue uptake at 0.5 h,[5]; [17],2.24 ± 0.42 %ID/g
same,tissue uptake at 1 h,[5]; [17],0.94 ± 0.23 %ID/g
same,tissue uptake at 2 h,[5]; [17],0.66 ± 0.09 %ID/g
same,tissue uptake at 4 h,[5]; [17],1.28 ± 0.43 %ID/g
